Experimental data from the DeepSol protein solubility set.

Experiment: soluble on expression in E. coli; label from the status in PepcDB or PDB records

Row | Sequence | soluble on expression in E. coli
1 | MTNVLIEDLKWRGLIYQQTDEQGIEDLLNKEQVTLYCGADPTADSLHIGHLLPFLTLRRFQEHGHRPIVLIGGGTGMIGDPSGKSEERVLQTEEQVDKNIEGISKQMHNIFEFGTDHGAVLVNNRDWLGQISLISFLRDYGKHVGVNYMLGKDSIQSRLEHGISYTEFTYTILQAIDFGHLNRELNCKIQVGGSDQWGNITSGIELMRRMYGQTDAYGLTIPLVTKSDGKKFGKSESGAVWLDAEKTSPYEFYQFWINQSDEDVIKFLKYFTFLGKEEIDRLEQSKNEAPHLREAQKTLAEEVTKFIHGEDALNDAIRISQALFSGDLKSLSAKELKDGFKDVPQVTLSNDTTNIVEVLIETGISPSKRQAREDVNNGAIYINGERQQDVNYALAPEDKIDGEFTIIRRGKKKYFMVNYQ | soluble
2 | MTNVQEQDKRKGGRPPTGRVRKLSKSVTVKFSKPSYEALKLRARKANRKLAEYIRESALNGEVVSGHNAETVAIAKNLIGMANNLNQLANLSHQRGFHETHVYVVDLLRRLKEILDEYRQASYKPKPSSMGRKEDTT | not soluble
3 | MTNYIYPKFGYLRSKEQAEGIVKRHPIVVIGAGPVGLTAALDCAARGQPVVLLDDNDTVSIGSRAVCYAKRPLEIWNRLDCADPMVERGVSWNVGKVFFRDELSYQFDLLPESDHEWPAMINLQQYHLEEILVARCRASPLIDLRWKHRLISLKQAADHAELAVETPDGIFTMEAQWVIACDGANSDTRKMVGAEFKGQYFEDRFLIADVAMKADFPTERWFWFDPPFHPAQSVLLHRQADDIWRIDFQLGWDADPDEEKRPERVIPRIKAMLGEDTEFELEWVSIYQFACRRIDKFRHGRVLFAGDAAHQVSPFGARGANTGVQDIDNLAWKLAMVLRGEAPEALLDSYHDERAYAADDNILNSTRATDFITPKTKVSRHFRDAVLELAQHHGFARPLVNSGRLSTPTPYVTSPLNTFDDSLLDGEMRPGTNAADAPVTIGGKPDWFLNCLGAGFVVVTFDQAVDNERIEVGPIAARVIRVGRDIDDPRGVLASRYGTSTGTTYLFRPDQYVAARWAGFDEGKISAALLRATAQDAVRQKEIAALEHHHHHH | not soluble
4 | MTNYKIDFSKGLVPAILQDNQTKQVLMLGYMNQEAFDKTIEDGVVCFYSRSKQRLWTKGETSGHTQRVKDIHVDCDNDTILIDVIPNGPTCHTGSQSCFNTEVPFSVQTLAQTVQDSAQSNNEKSYTKYLLTEGIEKITKKYGEEAFEVVIEAIKGDKKAFVSEVADELYHLFVLMHALGVDFSEIEAELARRHHKRNNFKGERQNIEQWLEHHHHHH | not soluble
5 | MTPHATPAPRVSAIVSLYNAERFVRGCLDDLLGQTLADSLEIIVIDACSPQGEGAIVQDYMRDHPNIVYVRTDEREGVYASWNRGVRLARAPYVTNANADDRHREDALERLAAALDEAPEAGFAYGDCRVGQTENERYADNAGQRVMRFPDFFAPATLLYCQLGPQPLWRRSVHDVVGFFDESYRACADWDFDIRLAAAFRGIHVPDALGLYLEHEAAITFRDDTMTRENDRVQRQWQHPEAVEERYRAAGVPCHTAEERALVHFDMALRALRFYPPWCYGAPAHNPGFARRCLRHALRLAPALAPAKELLALPDAVLTALDDLPSPLGLPSQATLAGVAAPLEHHHHHH | not soluble
6 | MTPTIELICGHRSIRHFTDEPISEAQREAIINSARATSSSSFLQCSSIIRITDKALREELVTLTGGQKHVAQAAEFWVFCADFNRHLQICPDAQLGLAEQLLLGVVDTAMMAQNALIAAESLGLGGVYIGGLRNNIEAVTKLLKLPQHVLPLFGLCLGWPADNPDLKPRLPASILVHENSYQPLDKGALAQYDEQLAEYYLTRGSNNRRDTWSDHIRRTIIKESRPFILDYLHKQGWATR | soluble
7 | MTQATTRICILGGGFGGLYTALRLSQLPWESTPKPEIILVDQSDRFLFSPFLYELLTGELQAWEIAPPYQELLQGTGVRFHQAVVSEIDTDKQQVQLQNGLEIAYDRLVLALGGETPLDLVPGATTYAHHFRSITEVYRLEESLRVLEASETEKIRIAIVGAGYSGVELACKLADRIGEKGRFRLIEISDQILRTSPEFNRQAAKKALETRGVFIDLETKVVSIGENTISLEYKTQVDEIPVDLVIWTVGTRVAPLVKTLPLKQNQRGQITTTSKLQVLEHPEIFALGDLADCLDTEGKQVPATAQVAFQQADYTAWNIWASLTNRPLLPFRYQQLGEMMALGVDNATLTGLGIKLDGSLAYIARRLAYLYRLPTLEHQLKVGFSWLVSPIIKTLSQ | not soluble
8 | MTQHFPTRQLRFFLTAPTPCPYLPGREERKVFAHLPLSDGPIVNDSLTQVGFRRSQNIAYRPACETCRACQSARAPATEYILSRSERKILGRNDDLERHLVEAEATLEQFELLRRYLLTRHADGGMAEMTWPDYVAMVEDTAVRTHLIEYRRKSLDRGPGDLVACVLVDVLADGLSLVYSFYEPDQPRRSLGSFIILDHIVQAQQNALPYVYLGYWVPGSEKMAYKARFSPLEILKPGGWSLMSARERGARPPRGPGALKDACDLPLSDAQPADIEDLDLEHHHHHH | not soluble
9 | MTQLNFEENLLTKVAWYYYKDQLTQQEIASLLHISRNKVVRLLDKARSEGIVTFHVKGTGLHCLSIERDLMKKFHLKDAFIIPTPVNNYHASLGKAAAQYLETHLQQGDLLGIGWGETISKMLENIHFESSINLSIVTLTGGVNHYLPRKQNYLHYMQGELHIIPTPFLASTTEMAQSILSEPSVKDMLQVASLAHTAVVGIGGLSQDATIVKEEKLTLREMTYIRSQNGAGDILGQFYNTNGDLLELSHHNRLIGTPLSILRNMKHVVGVAGGTEKIDAICGALKGKFIHSLITDEETALSLLRKDGDC | not soluble
10 | MTQLNQRRRGNRLENAIYDTTYTLLSQYGLDQVTFSRVATAAATSRSVLYRYWDSTFDLIFHTIIHQIQKTPIALTTTPLDTGSLRTDLILLAQRFIQQTSTGPFRYFRLLFATALNAQNQRDLTQLVTQIDHANLTLIEPLLTNAQNHGELQIWPNQAAQLVLFQQLRYCDIINQPMNTDQQLTNLIDQVVLPALRASGVANRHFHH | not soluble
11 | MTQSRRTLTERRADELRLAIAEVAFDMFVADGNTSATVERISQAVGIAPRTFYRHFEVKEDVVRPIFTKSSDVIVDALASTGEDVALLEGLVAAFLSQMDGTALTPEARTFLGLMLTTPAYKIRWLDVDPPLRQAVADLLDRRLGLSADPYIHLLAADLIVHAARDAFQHWVSSQEREPTEALLRRSFTLILKGLEHVIPRT | not soluble
12 | MTRHGKNCTAGAVYTYHEKRKDTAASGYGTQSVRLGKDAIKDFDCCSLSLQPCRDPVLTEDGYLYEKEAILQYILHQKTEIAKKMKAYEKQKQALKSEGQLESKSEERERAEKFKQRENNIVSKPINPFTSGKSKDEGNQNGSTSSSSTDTSSGESSSSSALPSFWIPSLTPEAKPTLLKKPSKTVSCPMSGRPLKMSDLITVRFTPLDPSLDRVALLTRQDRYVCAVTKDTLGNSVPCAVLRPSGVVVTMECVEKLIKKDMVDPITGDKLKEKDIIPIQRGGTGFAGSGVDLKAKEARPVMQA | not soluble
13 | MTRVIIDGDACPVVDSVIELTTGTGIFVTILRSFSHYSNKVLPNHVETIYIDDGPDAVDYKIVKLATPEDIVITQDYGLASLLLSKVKIVMHHKGHLYRSSNIDMLLQQRYNNAQIRKQGGRHKGPPPFSKEDKKQFERAFKSVIKQLLEHHHHHH | not soluble
14 | MTRYALLVRGINVGGKNKVVMAELRQELTNLGLEKVESYINSGNIFFTSIDSKAQLVEKLETFFAVHYPFIQSFSLLSLEDFEAELENLPAWWSRDLARKDFLFYTEGLDVDQVIATVESLELKDEVLYFGKLGIF | not soluble
15 | MTSASAPSFNPGKGPGSAVGIALLGFGTVGTEVMRLMTEYGDELAHRIGGPLEVRGIAVSDISKPREGVAPELLTEDAFALIEREDVDIVVEVIGGIEYPREVVLAALKAGKSVVTANKALVAAHSAELADAAEAANVDLYFEAAVAGAIPVVGPLRRSLAGDQIQSVMGIVNGTTNFILDAMDSTGADYADSLAEATRLGYAEADPTADVEGHDAASKAAILASIAFHTRVTADDVYCEGISNISAADIEAAQQAGHTIKLLAICEKFTNKEGKSAISARVHPTLLPVSHPLASVNKSFNAIFVEAEAAGRLMFYGNGAGGAPTASAVLGDVVGAARNKVHGGRAPGESTYANLPIADFGETTTRYHLDMDVEDRVGVLAELASLFSEQGISLRTIRQEERDDDARLIVVTHSALESDLSRTVELLKAKPVVKAINSVIRLERD | not soluble
16 | MTSDTFPQLPLSYWIESTQFPTFPRLSENIKTKVAIIGAGITGITTAYLLAKEGIDVVLIDSGRILNGTTGHTTAKVTAQHDLIYDELINHFGVEKARLYYESNNQALQFINKTVQTYKIDCNFSNEDSYLYTTTDNGLRNLSKEYEAYQKLNIPCDYVQSLSIPIPVQSALVMKNQAQFHPLLYLKTLLEKFVEMGGKVYEQTTAMDVEKGDYSQIITKEGHHITCEYVVSCSHFPFYDANSFFFTRMYAERSYALAIKAKTEYPGGMYLSIDDPKRSLRYITNNGEKLILIGGESHKTGQGINTMLHYEALYSFAEATFGIDEVSYRWSAQDLITLDKLPYIGHINERNPNIFVATGYRKWGMTTGTAAAHLLKDSILKVHSPYKELYAPSRFHANPDIKTFLSQNIDVAKHLIAGKIETALRKPEDLEVGEGSVVHVNGKRAGAYKDKEGKLHIVDTTCTHLGCEVEWNNGDCTWDCPCHGSRFSIEGDVLEGPADQPLKRVDNELEHHHHHH | soluble
17 | MTSLTNAVFKRYLAVTPSAHQALKTRIKKKSSSFDKFFPQQSNSRKKQWETLNEDKASWFKRKYAHVHAREQDRAADPYGKKKAHVEKLKEIKNQAKLNQKSHKSKFQNKDIALKLMNDNPIFEYVYGTNSVYAALLNPSRNCHSRLLYHGTIPSKFLQIVDELKVTTELVDKHRLNLLTNYGVHNNIALETKPLQPVEIAYLGDMDTSSAALSIHELGFNNENIPHELPYGTKTDAKKFPLGLYLDEITDPHNIGAIIRSAYFLGVDFIVMSRRNCSPLTPVVSKTSSGALELLPIFYVDKPLEFFTKSQEMGGWTFITSHLANATSEKYTVGKTISMHDLNGLCNELPVVLVVGNESQGVRTNLKMRSDFFVEIPFGGIEKGNRAPEPIVDSLNVSVATALLIDNILTCK | soluble
18 | MTSPDEHSPEKKDSENEVVPAGPKQKAKCLEKETKSPPKPSDLSKAERKEKNNKTARRDVKSSRGNVKTMKPSVVKVEERSSRSKKSIREGKLKNFSLPKDEPEITALQLDAELTKSARLMEEYKIALEQIITTLVSMMRRGNGTVDMENIVSDKGQTAAEKLNKEVQLTQNYWKTDTKLQPAMNDAIAKNTVVLAAAERNLQTQGPQHLKRVKKFLYGQYPKYVDMKRDLLKIVKQQKPEAQSVRDESAQAISKFIKEKYVNAKIYASRRNSKCFRRVELFPSYIRFYLASNR | soluble
19 | MTSRPSSDQTWQPIDGRVALIAPASAIATDVLEATLRQLEVHGVDYHLGRHVEARYRYLAGTVEQRLEDLHNAFDMPDITAVWCLRGGYGCGQLLPGLDWGRLQAASPRPLIGFSDISVLLSAFHRHGLPAIHGPVATGLGLSPLSAPREQQERLASLASVSRLLAGIDHELPVQHLGGHKQRVEGALIGGNLTALACMAGTLGGLHAPAGSILVLEDVGEPYYRLERSLWQLLESIDARQLGAICLGSFTDCPRKEVAHSLERIFGEYAAAIEVPLYHHLPSGHGAQNRAWPYGKTAVLEGNRLRW | soluble
